Test results as given in the supplement of paper PMC10126150.
± gives the standard deviation of the averaged measurements.

test system: ATP; assay: switch fluorescence ratio, 500 uM ATP over buffer (Cy3 cluster intensity, sum of 5 cycles each) (fold (ratio)); higher = stronger signal-on switching upon ATP binding; sequences stand for … in TCGTCGGCAGCGTCAGATGTGTATAAGAGACAGTTTTTTTTTTTTTTTTTTTTTTTTT…TC; conditions: aptamer strand: ATP DNA aptamer (quencher-CACCTGGGGGAGTATTGCGGAGGAAGG + anchor), 100 nM annealed; ATP concentration: 500 uM
Procedure, shortened: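 Five buffer/ATP imaging cycles were run on Cy3-labelled switching-strand clusters on a modified Illumina MiSeq flow-cell, with NaOH stripping and re-annealing between cycles. In each cycle, clusters annealed to 100 nM quencher-labelled ATP aptamer were imaged in selection buffer, then after 15 min with 500 uM ATP at 22 °C. Per cluster, the fluorescence ratio is summed target-cycle over summed buffer-cycle Cy3 intensity, averaged per switch-domain sequence. Only clusters within 100-1000 RFU were kept.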
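Note: ATP exposure 15 min at 22 °C before imaging.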

Row | Sequence | switch fluorescence ratio
1 | TGGGTATAAT | 1.014 ± 0.0096
2 | AACGACGATC | 1.11 ± 0.046
3 | GTGGGAGGCT | 1 ± 0.024
4 | TTATGGGAGA | 1.04 ± 0.042
5 | AAGCGGTGGG | 1.05 ± 0.032
6 | TGTAGGGGTG | 0.987 ± 0.016
7 | GCTATCTGGA | 0.998 ± 0.031
8 | GGGTTTTAAC | 0.9798 ± 0.0034
9 | AGCCTAGTTC | 1.01 ± 0.026
10 | CCTGGGGCAG | 1.17 ± 0.093
11 | CCAGGGCAGC | 1.06 ± 0.079
12 | GGCGAGACGC | 0.981 ± 0.031
13 | GAAATCGTTT | 0.9949 ± 0.0082
14 | ATCGAGGTCC | 1.01 ± 0.074
15 | CAAATAACAT | 1.01 ± 0.015
16 | ACGAGTGGGC | 1 ± 0.063
17 | TTATCTTAAT | 1.01 ± 0.015
18 | CATGTAAGTT | 0.986 ± 0.018
19 | CATAGCTAGG | 1.004 ± 0.0075
20 | CACCTTTATT | 1.018 ± 0.0096
21 | TTTTTAGGGG | 1.02 ± 0.055
22 | TGCAGGAAAC | 1.05 ± 0.036
23 | TTATCTAGTG | 0.9894 ± 0.0054

Row | Sequence | switch fluorescence ratio
24 | GTTGGGACGT | 0.973 ± 0.013
25 | TATTTTTGTG | 0.985 ± 0.011
26 | GAGTAAGGAC | 1.09 ± 0.061
27 | TTTTGTAGTT | 1 ± 0.043
28 | TGCGGGGTAC | 1.25 ± 0.045
29 | GTTAGTATTG | 0.998 ± 0.021
30 | GAAAAGGGGT | 1 ± 0.028
31 | TCGGAGAATG | 1.003 ± 0.01
32 | TACATTTTTT | 1.01 ± 0.022
33 | TTGGTGATGA | 1.02 ± 0.023
34 | ATACCTAGCT | 1.05 ± 0.019
35 | ATATAGCACG | 1.02 ± 0.033
36 | AGGAAGTGTG | 0.9869 ± 0.0079
37 | AAGGGATTGT | 1.18 ± 0.26
38 | GGGGTACAAT | 1.07 ± 0.041
39 | CGTTGATCAG | 0.976 ± 0.024
40 | GATACCGGGT | 1.01 ± 0.022
41 | AAAGGGGACC | 1.09 ± 0.053
42 | CGTTAAGTTC | 0.993 ± 0.029
43 | TTAATGGGGT | 1 ± 0.039
44 | GGGGTAAAAC | 1.02 ± 0.023
45 | GATTAGCCGG | 0.99 ± 0.015
46 | GGGGTGTTAG | 1.02 ± 0.012

Row | Sequence | switch fluorescence ratio
47 | TCCGGGAGTG | 1.078 ± 0.0027
48 | AGGTATAGGA | 1.01 ± 0.013
49 | ATAAATTTGT | 0.967 ± 0.019
50 | TTTCTTCGCG | 1.027 ± 0.0032
51 | TGATAACTGG | 0.9745 ± 0.0064
52 | TAGTGGTTAG | 0.991 ± 0.025
53 | ATTATGTCTT | 0.9878 ± 0.0094
54 | TTTGGTGGGT | 0.975 ± 0.012
55 | ATAGGATGAG | 1.022 ± 0.0091
56 | TATAGTATTT | 0.984 ± 0.015
57 | AGAAGGGGAC | 1.02 ± 0.026
58 | TGCAGGGCGG | 0.9806 ± 0.0017
59 | TTTAATAGGG | 0.995 ± 0.036
60 | TAGGATGGCT | 0.959 ± 0.072
61 | TAAGAAGGTC | 1.01 ± 0.054
62 | CCGAAAAGCT | 1.17 ± 0.041
63 | CTTATAGTGC | 0.974 ± 0.0023
64 | TTGAAATTAC | 1.03 ± 0.065
65 | CGCATACGGT | 4.124 ± 0.029
66 | TGTCGGTGTC | 1.01 ± 0.028
67 | GGAAATGGGT | 1.05 ± 0.036
68 | TATTGATTTA | 1.02 ± 0.042
69 | ACTGGGATC | 1.01 ± 0.019

Row | Sequence | switch fluorescence ratio
70 | GTTATCCGGG | 1.01 ± 0.036
71 | TGATATTTTG | 1 ± 0.016
72 | TTGGGGTAGA | 1.05 ± 0.031
73 | TTTATAGAGT | 1.03 ± 0.029
74 | AGGCGCACGG | 1.01 ± 0.029
75 | TTGGGGACTT | 1.02 ± 0.07
76 | GTATTGGTTG | 0.983 ± 0.026
77 | AAGCTGGTAC | 1.99 ± 0.1
78 | GCTGTATGGC | 1.01 ± 0.027
79 | ATGAATTCGG | 1.01 ± 0.011
80 | GGATTTACGT | 1.02 ± 0.023
81 | CCACGGTTAG | 0.981 ± 0.023
82 | TGACTCGGGC | 0.993 ± 0.022
83 | AATTGGAATA | 0.956 ± 0.038
84 | GGTTGTTTGT | 0.995 ± 0.015
85 | CAGGATTTTT | 0.993 ± 0.042
86 | ATGGGGGTCA | 0.998 ± 0.015
87 | CGGGGCTGGA | 0.984 ± 0.017
88 | AGATAGATCT | 0.9871 ± 0.0059
89 | CGTAGTTTAG | 1.05 ± 0.027
90 | GCCGTTAGCG | 1.02 ± 0.049
91 | TTTAATTCTT | 1 ± 0.012
92 | TATGAAAAGT | 0.9926 ± 0.0072

Row | Sequence | switch fluorescence ratio
93 | TTTTGTTCAG | 0.985 ± 0.037
94 | CGTCTATGGG | 1 ± 0.014
95 | GAGACAGCGC | 1.02 ± 0.062
96 | TAACTGTGAT | 0.988 ± 0.025
97 | GCGCGATATT | 2.17 ± 0.21
98 | TTGGGGATAA | 1.07 ± 0.09
99 | ATGGGATTAA | 1.032 ± 0.0025
100 | ACTTGTGGCT | 1.01 ± 0.018
101 | TTATACTCTT | 1.01 ± 0.026
102 | ACCCGGGCAG | 1.049 ± 0.0047
103 | TACAACATTT | 1.06 ± 0.015
104 | TTCGTGTATC | 0.999 ± 0.011
105 | TCAGGTTTTG | 0.98 ± 0.013
106 | TTTTGCTGCG | 1.023 ± 0.0033
107 | ATGGCAGGCA | 0.9929 ± 0.0054
108 | AATATGATAA | 1.01 ± 0.053
109 | AATCGTGGTT | 1 ± 0.034
110 | GTTGCTTGCG | 1 ± 0.02
111 | GGGATTTGAT | 0.98 ± 0.028
112 | CATGAGTTGT | 1 ± 0.025
113 | TAAGTCGAAA | 1 ± 0.019
114 | TCAAGGGTCC | 0.996 ± 0.07
115 | GTAGGTTACT | 1.01 ± 0.019

Row | Sequence | switch fluorescence ratio
116 | ATTTACCGGT | 1.03 ± 0.022
117 | AATTTCGTTG | 0.999 ± 0.029
118 | GAGTATTGGG | 0.9897 ± 0.0087
119 | CATAGTTACG | 0.994 ± 0.047
120 | AGGCCTCAGA | 0.973 ± 0.015
121 | ATCTCACTT | 1.02 ± 0.03
122 | GGGGCAAGAT | 1.52 ± 0.78
123 | GAGTCTATTG | 1.023 ± 0.0022
124 | TCGGACTAGG | 1 ± 0.031
125 | GAAGTTGCCT | 1.05 ± 0.028
126 | TTGAGTTATT | 0.96 ± 0.031
127 | ATGTGGGCTA | 0.992 ± 0.03
128 | TGGAAGGTT | 0.987 ± 0.019
129 | TTGTTTTTTT | 1 ± 0.05
130 | GAGGGGAGCG | 0.969 ± 0.043
131 | AAAGAAAAAT | 1.002 ± 0.005
132 | AATTAACCCA | 1.05 ± 0.051
133 | GGGAACGGAA | 2.4 ± 1.8
134 | GGATGAGGGA | 0.957 ± 0.029
135 | ACTAGACTAG | 0.984 ± 0.044
136 | CTGTGGTTTA | 1.03 ± 0.021
137 | ACCATCAAAT | 0.9853 ± 0.0068
138 | GGGTTTTAGT | 1.01 ± 0.029

Row | Sequence | switch fluorescence ratio
139 | AGGAGTTTCG | 1.01 ± 0.044
140 | ATAAAGAGGC | 0.978 ± 0.066
141 | CACTGTAACG | 1.194 ± 0.0063
142 | TACAGGGGGA | 1.09 ± 0.14
143 | ACGGGTCCGG | 1.02 ± 0.011
144 | ATATTTTATG | 1.03 ± 0.044
145 | TGAAAAATTT | 0.988 ± 0.025
146 | CGAGTAGCGG | 1.01 ± 0.036
147 | TGAGAGGTTA | 1.04 ± 0.013
148 | CTATTGATGG | 0.996 ± 0.015
149 | TTCTTACTGG | 0.995 ± 0.021
150 | GCGAAAGGCT | 1.03 ± 0.024
151 | GTTGTGGGGG | 1.01 ± 0.049
152 | TTTGGCCTAC | 1.01 ± 0.02
153 | TTTTATATTT | 1 ± 0.034
154 | CTTTAAAGTT | 1.09 ± 0.18
155 | TGGGACGCCT | 1.06 ± 0.14
156 | TGGGGCGACT | 0.991 ± 0.021
157 | TTGTGGAAGC | 1.01 ± 0.025
